Test results: patent US6784337

How the values were obtained:
Papain = Papain (UniProt P00784); assay: cell-based or functional assay
trypsin = assay: cell-based or functional assay

Sequence of UniProt P00784 (P00784 134-345 limits assumed): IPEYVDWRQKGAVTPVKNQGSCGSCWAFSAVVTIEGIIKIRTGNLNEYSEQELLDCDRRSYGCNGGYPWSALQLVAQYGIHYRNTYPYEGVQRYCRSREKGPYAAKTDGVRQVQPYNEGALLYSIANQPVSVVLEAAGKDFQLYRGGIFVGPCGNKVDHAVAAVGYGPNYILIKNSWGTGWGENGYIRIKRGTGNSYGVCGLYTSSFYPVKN

inhibition of papain activity (relative inhibition assay, substrate N-Cbz-Phe-Arg-7-amido-4-methylcoumarin) (Papain) [%] | inhibition of trypsin activity (relative inhibition assay, substrate N-Cbz-Phe-Arg-7-amido-4-methylcoumarin) (trypsin) [%] | Substance
95 | 95 | Oc-IΔD86/PsMTa/CpTI fusion protein (products of the construct) (from UniProt P09229 39-140)
95 | 95 | Oc-IΔD86/go/CpTI fusion protein (from UniProt P09229 39-140)
